# Measurements as given in article PMC6222199, “Regulatory Targets of the Response Regulator RR_1586 from Clostridioides difficile Identified Using a Bacterial One-Hybrid Screen”.
# B1: CDR20291_3145 site (dsDNA)
# DNA 1: ATAGTTAAGGTTTAATTAAGATTAAA
# DNA 2: TTTAATCTTAATTAAACCTTAACTAT
# B2: CDR20291_3121 (pst) site (dsDNA)
# DNA 1: CTATATTAGGATTAAGTTAAGCAAGTGT
# DNA 2: ACACTTGCTTAACTTAATCCTAATATAG
# B3: CDR20291_0578 native direct repeat (dsDNA)
# DNA 1: ATTTTATTAAGAATGGGTTAAGAGTATAC
# DNA 2: GTATACTCTTAACCCATTCTTAATAAAAT
# B4: CDR20291_1583 site (dsDNA)
# DNA 1: AGGAATTAAGGAGCAATTAAATGATG
# DNA 2: CATCATTTAATTGCTCCTTAATTCCT
# Legend:
# RR_1586 [1] = target: T1, RR_1586 (Clostridioides difficile R20291, UniProt A0A9R0BKD1 1-223); test: EMSA; 10 mM Mg2+; EMSA: 5 pmol DNA in 10 ul (500 nM), 10 mM Tris pH 8, 50 mM NaCl, 10 mM MgCl2, room temperature 10 min; 10% PAGE 0.5x TBE on ice, ethidium bromide; conditions: protein: recombinant; tags: His6; chain copies: 2; blunt
# RR_1586 [2] = target: T1, RR_1586; test: EMSA; 10 mM Mg2+; unphosphorylated; EMSA: 5 pmol DNA in 10 ul (500 nM), 10 mM Tris pH 8, 50 mM NaCl, 10 mM MgCl2, room temperature 10 min; 10% PAGE 0.5x TBE on ice, ethidium bromide; conditions: protein: recombinant; tags: His6; chain copies: 2; blunt
Binder,binding result (RR_1586 [1]),binding result (RR_1586 [2])
B1,binds,–
B2,binds,–
B3,binds,–
B4,–,binds
